Experiments:
[1] = target: Escherichia coli enolase (E. coli) (UniProt P0A6P9); experiment: native MS; enolase mixed with the microdomain in a 1:1.5 molar ratio, room temperature, 20 min; nanoflow ESI, tandem nondissociating QTOF-MS/MS
[2] = target: Escherichia coli enolase (E. coli) (UniProt P0A6P9); experiment: crystal structure; enolase and microdomain mixed in a 1:1.5 molar ratio on ice for 20 min; sitting drop, 0.1 M HEPES pH 7.0, 1.6 M ammonium sulfate, 293 K; 1.9 A

Chain of Escherichia coli enolase (E. coli) (P0A6P9 whole entry): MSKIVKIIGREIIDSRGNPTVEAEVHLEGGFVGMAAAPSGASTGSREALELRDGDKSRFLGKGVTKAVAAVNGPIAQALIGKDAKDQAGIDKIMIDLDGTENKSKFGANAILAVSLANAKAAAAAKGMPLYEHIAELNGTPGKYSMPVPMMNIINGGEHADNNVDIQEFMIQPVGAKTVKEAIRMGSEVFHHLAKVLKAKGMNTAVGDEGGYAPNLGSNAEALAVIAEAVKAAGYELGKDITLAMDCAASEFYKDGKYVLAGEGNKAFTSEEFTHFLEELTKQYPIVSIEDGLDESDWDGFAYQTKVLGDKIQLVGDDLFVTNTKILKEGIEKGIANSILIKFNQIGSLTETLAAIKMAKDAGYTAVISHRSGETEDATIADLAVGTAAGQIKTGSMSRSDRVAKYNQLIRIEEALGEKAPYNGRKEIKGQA

Q: For “RNase E recognition microdomain (residues 823-850) (peptide)”, which stoichiometry N (RNase E microdomain per enolase dimer) [1] is on record?
A: The stoichiometry N (RNase E microdomain per enolase dimer) was 1.

Q: What about the stoichiometry N (RNase E microdomain per enolase dimer) [2] of the same substance?
A: Its stoichiometry N (RNase E microdomain per enolase dimer) is 1.

— article PMC2935283
